B1: HIV-1 protease Flap+(I54A) (L10I, G48V, I54A, V82A on the pWT backbone) (enzyme)
chain: not shown
B2: HIV-1 protease Flap+(I54) (L10I, G48V, V82A on the pWT backbone) (enzyme)
chain: not shown
B3: HIV-1 protease Flap+(I54V) (L10I, G48V, I54V, V82A on the pWT backbone) (enzyme)
chain: not shown
B4: HIV-1 protease, pseudo wild type (pWT) (enzyme)
chain: not shown

Some results are limits rather than exact numbers.

The data set concerns the molecule itself. The data set can be described thus: other fluorescence titration.
With B1, the Kd (usually the free concentration of one partner at which half of the binding sites on the other are occupied at equilibrium, for simple one-to-one binding) was under 250 nM. In turn, B2 gave a Kd of under 250 nM.

B3: the Kd is under 250 nM.

Take B4: the Kd is under 250 nM.

Source of the values: article doi:10.1101/404996 (bioRxiv, 2018).
